Molecular target: canine FcRn complex (FcRn-α subunit and β-microglobulin) (canine, UniProt A0A8I3PFR8 25-347, biotin on the BAP tag by BirA (Example 5 only))
Test: SPR (Biacore), biotinylated FcRn on SA chip, IgG flowed, pH 6, 15 C

canine FcRn complex (FcRn-α subunit and β-microglobulin), sequence (A0A8I3PFR8 entry or part of it, one chain of several): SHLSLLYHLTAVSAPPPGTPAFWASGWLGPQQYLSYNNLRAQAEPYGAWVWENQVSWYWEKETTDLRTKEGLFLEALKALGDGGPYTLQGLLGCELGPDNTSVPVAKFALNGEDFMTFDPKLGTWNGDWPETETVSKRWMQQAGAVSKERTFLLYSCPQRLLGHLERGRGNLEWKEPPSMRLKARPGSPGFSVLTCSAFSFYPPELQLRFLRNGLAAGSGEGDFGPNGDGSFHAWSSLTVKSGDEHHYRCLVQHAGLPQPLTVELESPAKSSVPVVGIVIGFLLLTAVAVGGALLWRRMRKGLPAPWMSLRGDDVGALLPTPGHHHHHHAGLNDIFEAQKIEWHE

Row | Kd [nM] | Binder
1 | 15.1 | mAb2 of Table 4A, caninized anti-NGF antibody ZTS-841, canine IgGA, N434R (antibody, also called ID No. 42) heavy: EVQLVESGGDLVKPGGSLRLSCVASGFTFSSHGMHWVRQSPGKGLQWVAVINSGGSSTYYTDAVKGRFTISRDNAKNTVYLQMNSLRAEDTAMYYCAKESVGGWEQLVGPHFDYWGQGTLVIVSSASTTAPSVFPLAPSCGSTSGSTVALACLVSGYFPEPVTVSWNSGSLTSGVHTFPSVLQSSGLHSLSSMVTVPSSRWPSETFTCNVVHPASNTKVDKPVFNECRCTDTPPCPVPEPLGGPSVLIFPPKPKDILRITRTPEVTCVVLDLGREDPEVQISWFVDGKEVHTAKTQSREQQFNGTYRVVSVLPIEHQDWLTGKEFKCRVNHIDLPSPIERTISKARGRAHKPSVYVLPPSPKELSSSDTVSITCLIKDFYPPDIDVEWQSNGQQEPERKHRMTPPQLDEDGSYFLYSKLSVDKSRWQQGDPFTCAVMHETLQRHYTDLSLSHSPGK VL: QSVLTQPTSVSGSLGQRVTISCSGSTNNIGILGASWYQLFPGKAPKLLVYGNGNRPSGVPDRFSGADSGDSVTLTITGLQAEDEADYYCQSFDTTLGAHVFGGGTHLTVL
2 | 91.5 | mAb2 of Table 4A, caninized anti-NGF antibody ZTS-841, canine IgGB, WT (antibody, also called ID No. 46) heavy: EVQLVESGGDLVKPGGSLRLSCVASGFTFSSHGMHWVRQSPGKGLQWVAVINSGGSSTYYTDAVKGRFTISRDNAKNTVYLQMNSLRAEDTAMYYCAKESVGGWEQLVGPHFDYWGQGTLVIVSSASTTAPSVFPLAPSCGSTSGSTVALACLVSGYFPEPVTVSWNSGSLTSGVHTFPSVLQSSGLYSLSSMVTVPSSRWPSETFTCNVAHPASKTKVDKPVPKRENGRVPRPPDCPKCPAPEMLGGPSVFIFPPKPKDTLLIARTPEVTCVVVDLDPEDPEVQISWFVDGKQMQTAKTQPREEQFNGTYRVVSVLPIGHQDWLKGKQFTCKVNNKALPSPIERTISKARGQAHQPSVYVLPPSREELSKNTVSLTCLIKDFFPPDIDVEWQSNGQQEPESKYRTTPPQLDEDGSYFLYSKLSVDKSRWQRGDTFICAVMHEALHNHYTQESLSHSPGK VL: QSVLTQPTSVSGSLGQRVTISCSGSTNNIGILGASWYQLFPGKAPKLLVYGNGNRPSGVPDRFSGADSGDSVTLTITGLQAEDEADYYCQSFDTTLGAHVFGGGTHLTVL
3 | 1.83 | mAb2 of Table 4A, caninized anti-NGF antibody ZTS-841, canine IgGB, N434L (antibody, also called ID No. 52) heavy: EVQLVESGGDLVKPGGSLRLSCVASGFTFSSHGMHWVRQSPGKGLQWVAVINSGGSSTYYTDAVKGRFTISRDNAKNTVYLQMNSLRAEDTAMYYCAKESVGGWEQLVGPHFDYWGQGTLVIVSSASTTAPSVFPLAPSCGSTSGSTVALACLVSGYFPEPVTVSWNSGSLTSGVHTFPSVLQSSGLYSLSSMVTVPSSRWPSETFTCNVAHPASKTKVDKPVPKRENGRVPRPPDCPKCPAPEMLGGPSVFIFPPKPKDTLLIARTPEVTCVVVDLDPEDPEVQISWFVDGKQMQTAKTQPREEQFNGTYRVVSVLPIGHQDWLKGKQFTCKVNNKALPSPIERTISKARGQAHQPSVYVLPPSREELSKNTVSLTCLIKDFFPPDIDVEWQSNGQQEPESKYRTTPPQLDEDGSYFLYSKLSVDKSRWQRGDTFICAVMHEALHLHYTQESLSHSPGK VL: QSVLTQPTSVSGSLGQRVTISCSGSTNNIGILGASWYQLFPGKAPKLLVYGNGNRPSGVPDRFSGADSGDSVTLTITGLQAEDEADYYCQSFDTTLGAHVFGGGTHLTVL
4 | 147 | mAb2 of Table 4A, caninized anti-NGF antibody ZTS-841, canine IgGA, N434S (antibody, also called ID No. 43) heavy: EVQLVESGGDLVKPGGSLRLSCVASGFTFSSHGMHWVRQSPGKGLQWVAVINSGGSSTYYTDAVKGRFTISRDNAKNTVYLQMNSLRAEDTAMYYCAKESVGGWEQLVGPHFDYWGQGTLVIVSSASTTAPSVFPLAPSCGSTSGSTVALACLVSGYFPEPVTVSWNSGSLTSGVHTFPSVLQSSGLHSLSSMVTVPSSRWPSETFTCNVVHPASNTKVDKPVFNECRCTDTPPCPVPEPLGGPSVLIFPPKPKDILRITRTPEVTCVVLDLGREDPEVQISWFVDGKEVHTAKTQSREQQFNGTYRVVSVLPIEHQDWLTGKEFKCRVNHIDLPSPIERTISKARGRAHKPSVYVLPPSPKELSSSDTVSITCLIKDFYPPDIDVEWQSNGQQEPERKHRMTPPQLDEDGSYFLYSKLSVDKSRWQQGDPFTCAVMHETLQSHYTDLSLSHSPGK VL: QSVLTQPTSVSGSLGQRVTISCSGSTNNIGILGASWYQLFPGKAPKLLVYGNGNRPSGVPDRFSGADSGDSVTLTITGLQAEDEADYYCQSFDTTLGAHVFGGGTHLTVL
5 | 9.81 | mAb2 of Table 4A, caninized anti-NGF antibody ZTS-841, canine IgGB, N434A (antibody, also called ID No. 47) heavy: EVQLVESGGDLVKPGGSLRLSCVASGFTFSSHGMHWVRQSPGKGLQWVAVINSGGSSTYYTDAVKGRFTISRDNAKNTVYLQMNSLRAEDTAMYYCAKESVGGWEQLVGPHFDYWGQGTLVIVSSASTTAPSVFPLAPSCGSTSGSTVALACLVSGYFPEPVTVSWNSGSLTSGVHTFPSVLQSSGLYSLSSMVTVPSSRWPSETFTCNVAHPASKTKVDKPVPKRENGRVPRPPDCPKCPAPEMLGGPSVFIFPPKPKDTLLIARTPEVTCVVVDLDPEDPEVQISWFVDGKQMQTAKTQPREEQFNGTYRVVSVLPIGHQDWLKGKQFTCKVNNKALPSPIERTISKARGQAHQPSVYVLPPSREELSKNTVSLTCLIKDFFPPDIDVEWQSNGQQEPESKYRTTPPQLDEDGSYFLYSKLSVDKSRWQRGDTFICAVMHEALHAHYTQESLSHSPGK VL: QSVLTQPTSVSGSLGQRVTISCSGSTNNIGILGASWYQLFPGKAPKLLVYGNGNRPSGVPDRFSGADSGDSVTLTITGLQAEDEADYYCQSFDTTLGAHVFGGGTHLTVL
6 | 52 | mAb2 of Table 4A, caninized anti-NGF antibody ZTS-841, canine IgGC, WT (antibody, also called ID No. 53) heavy: EVQLVESGGDLVKPGGSLRLSCVASGFTFSSHGMHWVRQSPGKGLQWVAVINSGGSSTYYTDAVKGRFTISRDNAKNTVYLQMNSLRAEDTAMYYCAKESVGGWEQLVGPHFDYWGQGTLVIVSSASTTAPSVFPLAPSCGSQSGSTVALACLVSGYIPEPVTVSWNSVSLTSGVHTFPSVLQSSGLYSLSSMVTVPSSRWPSETFTCNVAHPATNTKVDKPVAKECECKCNCNNCPCPGCGLLGGPSVFIFPPKPKDILVTARTPTVTCVVVDLDPENPEVQISWFVDSKQVQTANTQPREEQSNGTYRVVSVLPIGHQDWLSGKQFKCKVNNKALPSPIEEIISKTPGQAHQPNVYVLPPSRDEMSKNTVTLTCLVKDFFPPEIDVEWQSNGQQEPESKYRMTPPQLDEDGSYFLYSKLSVDKSRWQRGDTFICAVMHEALHNHYTQISLSHSPGK VL: QSVLTQPTSVSGSLGQRVTISCSGSTNNIGILGASWYQLFPGKAPKLLVYGNGNRPSGVPDRFSGADSGDSVTLTITGLQAEDEADYYCQSFDTTLGAHVFGGGTHLTVL
7 | 1.92 | mAb2 of Table 4A, caninized anti-NGF antibody ZTS-841, canine IgGB, N434F (antibody, also called ID No. 48) heavy: EVQLVESGGDLVKPGGSLRLSCVASGFTFSSHGMHWVRQSPGKGLQWVAVINSGGSSTYYTDAVKGRFTISRDNAKNTVYLQMNSLRAEDTAMYYCAKESVGGWEQLVGPHFDYWGQGTLVIVSSASTTAPSVFPLAPSCGSTSGSTVALACLVSGYFPEPVTVSWNSGSLTSGVHTFPSVLQSSGLYSLSSMVTVPSSRWPSETFTCNVAHPASKTKVDKPVPKRENGRVPRPPDCPKCPAPEMLGGPSVFIFPPKPKDTLLIARTPEVTCVVVDLDPEDPEVQISWFVDGKQMQTAKTQPREEQFNGTYRVVSVLPIGHQDWLKGKQFTCKVNNKALPSPIERTISKARGQAHQPSVYVLPPSREELSKNTVSLTCLIKDFFPPDIDVEWQSNGQQEPESKYRTTPPQLDEDGSYFLYSKLSVDKSRWQRGDTFICAVMHEALHFHYTQESLSHSPGK VL: QSVLTQPTSVSGSLGQRVTISCSGSTNNIGILGASWYQLFPGKAPKLLVYGNGNRPSGVPDRFSGADSGDSVTLTITGLQAEDEADYYCQSFDTTLGAHVFGGGTHLTVL
8 | 34.3 | mAb2 of Table 4A, caninized anti-NGF antibody ZTS-841, canine IgGB, N434G (antibody, also called ID No. 49) heavy: EVQLVESGGDLVKPGGSLRLSCVASGFTFSSHGMHWVRQSPGKGLQWVAVINSGGSSTYYTDAVKGRFTISRDNAKNTVYLQMNSLRAEDTAMYYCAKESVGGWEQLVGPHFDYWGQGTLVIVSSASTTAPSVFPLAPSCGSTSGSTVALACLVSGYFPEPVTVSWNSGSLTSGVHTFPSVLQSSGLYSLSSMVTVPSSRWPSETFTCNVAHPASKTKVDKPVPKRENGRVPRPPDCPKCPAPEMLGGPSVFIFPPKPKDTLLIARTPEVTCVVVDLDPEDPEVQISWFVDGKQMQTAKTQPREEQFNGTYRVVSVLPIGHQDWLKGKQFTCKVNNKALPSPIERTISKARGQAHQPSVYVLPPSREELSKNTVSLTCLIKDFFPPDIDVEWQSNGQQEPESKYRTTPPQLDEDGSYFLYSKLSVDKSRWQRGDTFICAVMHEALHGHYTQESLSHSPGK VL: QSVLTQPTSVSGSLGQRVTISCSGSTNNIGILGASWYQLFPGKAPKLLVYGNGNRPSGVPDRFSGADSGDSVTLTITGLQAEDEADYYCQSFDTTLGAHVFGGGTHLTVL
9 | 19.9 | mAb1, caninized anti-IL31 antibody 34D03, canine IgGA, N434W (antibody, VH/VL: the caninized 34D03 entries of the listing; also called ID No. 6; copies: 2 + 2) heavy: EVQLVESGGDLVKPGGSLRLSCVASGFTFSNYGMSWVRQAPGKGLQWVATISYGGSYTYYPDNIKGRFTISRDNAKNTLYLQMNSLRAEDTAMYYCVRGYGYDTMDYWGQGTLVTVSSASTTAPSVFPLAPSCGSTSGSTVALACLVSGYFPEPVTVSWNSGSLTSGVHTFPSVLQSSGLHSLSSMVTVPSSRWPSETFTCNVVHPASNTKVDKPVFNECRCTDTPPCPVPEPLGGPSVLIFPPKPKDILRITRTPEVTCVVLDLGREDPEVQISWFVDGKEVHTAKTQSREQQFNGTYRVVSVLPIEHQDWLTGKEFKCRVNHIDLPSPIERTISKARGRAHKPSVYVLPPSPKELSSSDTVSITCLIKDFYPPDIDVEWQSNGQQEPERKHRMTPPQLDEDGSYFLYSKLSVDKSRWQQGDPFTCAVMHETLQWHYTDLSLSHSPGK light: EIVMTQSPASLSLSQEEKVTITCKASQSVSFAGTGLMHWYQQKPGQAPKLLIYRASNLEAGVPSRFSGSGSGTDFSFTISSLEPEDVAVYYCQQSREYPWTFGQGTKLEIKRNDAQPAVYLFQPSPDQLHTGSASVVCLLNSFYPKDINVKWKVDGVIQDTGIQESVTEQDKDSTYSLSSTLTMSSTEYLSHELYSCEITHKSLPSTLIKSFQRSEC
10 | 100 | mAb1, caninized anti-IL31 antibody 34D03, canine IgGC, WT (antibody, VH/VL: the caninized 34D03 entries of the listing; also called ID No. 35) heavy: EVQLVESGGDLVKPGGSLRLSCVASGFTFSNYGMSWVRQAPGKGLQWVATISYGGSYTYYPDNIKGRFTISRDNAKNTLYLQMNSLRAEDTAMYYCVRGYGYDTMDYWGQGTLVTVSSASTTAPSVFPLAPSCGSQSGSTVALACLVSGYIPEPVTVSWNSVSLTSGVHTFPSVLQSSGLYSLSSMVTVPSSRWPSETFTCNVAHPATNTKVDKPVAKECECKCNCNNCPCPGCGLLGGPSVFIFPPKPKDILVTARTPTVTCVVVDLDPENPEVQISWFVDSKQVQTANTQPREEQSNGTYRVVSVLPIGHQDWLSGKQFKCKVNNKALPSPIEEIISKTPGQAHQPNVYVLPPSRDEMSKNTVTLTCLVKDFFPPEIDVEWQSNGQQEPESKYRMTPPQLDEDGSYFLYSKLSVDKSRWQRGDTFICAVMHEALHNHYTQISLSHSPGK VL: EIVMTQSPASLSLSQEEKVTITCKASQSVSFAGTGLMHWYQQKPGQAPKLLIYRASNLEAGVPSRFSGSGSGTDFSFTISSLEPEDVAVYYCQQSREYPWTFGQGTKLEIK
